Read-outs that look alike come from different tables or passages of the source. Starred links: 1 amine or outer side, 2 acyl side, 3 side chain; linkers in the order of their positions; H or OH if unused. Positions of bridges follow the written chain, without caps; N, C: chain ends. Non-standard residues stand in square brackets, D forms with d. *: point of attachment. C20 diacid = O=C(O)CCCCCCCCCCCCCCCCCCC(=O)*; C18 diacid = O=C(O)CCCCCCCCCCCCCCCCC(=O)*; γGlu = O=C(O)[C@H](CCC(=O)[*:2])N[*:1]; Orn = NCCC[C@H](N)C(=O)O; AEEA = NCCOCCOCC(=O)O
T1: human amylin 3(a) receptor (human calcitonin receptor with RAMP-3) (human) (UniProt P30988)
T1 sequence (looked up) 1: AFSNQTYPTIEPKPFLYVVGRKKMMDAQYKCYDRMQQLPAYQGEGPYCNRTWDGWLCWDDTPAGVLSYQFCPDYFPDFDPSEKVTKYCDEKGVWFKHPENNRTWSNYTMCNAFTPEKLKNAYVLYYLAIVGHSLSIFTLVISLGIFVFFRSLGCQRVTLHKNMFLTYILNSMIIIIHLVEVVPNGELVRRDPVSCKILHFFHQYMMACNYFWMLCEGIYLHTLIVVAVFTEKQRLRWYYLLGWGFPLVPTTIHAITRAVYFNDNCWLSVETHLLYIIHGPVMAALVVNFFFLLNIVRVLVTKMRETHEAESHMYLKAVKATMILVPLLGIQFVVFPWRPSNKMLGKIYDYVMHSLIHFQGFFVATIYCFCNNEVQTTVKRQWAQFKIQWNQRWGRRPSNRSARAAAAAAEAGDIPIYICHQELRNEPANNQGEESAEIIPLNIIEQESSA
T1 sequence (looked up) 2: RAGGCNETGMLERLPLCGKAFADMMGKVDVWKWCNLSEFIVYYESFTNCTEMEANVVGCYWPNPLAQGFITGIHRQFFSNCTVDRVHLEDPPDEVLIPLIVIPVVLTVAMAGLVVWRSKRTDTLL

T2: human calcitonin (a) receptor (human) (UniProt P30988)
T2 sequence (looked up): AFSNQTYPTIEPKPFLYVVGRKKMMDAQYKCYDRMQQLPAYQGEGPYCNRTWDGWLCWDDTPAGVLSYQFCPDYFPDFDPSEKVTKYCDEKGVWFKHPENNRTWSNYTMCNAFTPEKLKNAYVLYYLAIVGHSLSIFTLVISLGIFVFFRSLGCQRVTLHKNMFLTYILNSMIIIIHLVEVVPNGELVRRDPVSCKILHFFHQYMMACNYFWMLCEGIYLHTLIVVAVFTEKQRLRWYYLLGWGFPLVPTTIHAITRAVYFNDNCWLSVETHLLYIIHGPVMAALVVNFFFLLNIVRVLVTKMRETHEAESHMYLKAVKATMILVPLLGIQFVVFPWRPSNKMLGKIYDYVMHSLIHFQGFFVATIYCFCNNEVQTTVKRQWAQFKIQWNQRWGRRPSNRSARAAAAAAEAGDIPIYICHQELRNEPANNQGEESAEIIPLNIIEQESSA

T3: human amylin 3(a) receptor (human calcitonin receptor + RAMP-3) (human) (UniProt P30988)
T3 sequence (looked up) 1: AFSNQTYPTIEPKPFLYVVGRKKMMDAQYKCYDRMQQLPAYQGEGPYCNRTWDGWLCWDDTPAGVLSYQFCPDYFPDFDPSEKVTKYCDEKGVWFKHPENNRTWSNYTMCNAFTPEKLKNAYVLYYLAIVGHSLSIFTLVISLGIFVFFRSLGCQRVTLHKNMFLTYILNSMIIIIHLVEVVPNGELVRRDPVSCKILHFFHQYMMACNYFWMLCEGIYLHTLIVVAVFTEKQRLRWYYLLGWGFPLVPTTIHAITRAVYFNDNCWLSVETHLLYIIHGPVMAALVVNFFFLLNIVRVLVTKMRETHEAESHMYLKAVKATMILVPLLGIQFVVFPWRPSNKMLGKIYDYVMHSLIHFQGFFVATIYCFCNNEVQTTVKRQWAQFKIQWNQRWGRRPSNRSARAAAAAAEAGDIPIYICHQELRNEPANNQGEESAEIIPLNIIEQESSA
T3 sequence (looked up) 2: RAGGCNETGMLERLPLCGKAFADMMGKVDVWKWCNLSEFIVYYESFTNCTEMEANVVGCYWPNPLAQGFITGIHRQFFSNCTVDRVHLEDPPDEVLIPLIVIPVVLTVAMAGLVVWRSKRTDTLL

T4: human amylin 3(a) receptor (human calcitonin receptor co-expressed with RAMP-3) (human) (UniProt P30988)
T4 sequence (looked up) 1: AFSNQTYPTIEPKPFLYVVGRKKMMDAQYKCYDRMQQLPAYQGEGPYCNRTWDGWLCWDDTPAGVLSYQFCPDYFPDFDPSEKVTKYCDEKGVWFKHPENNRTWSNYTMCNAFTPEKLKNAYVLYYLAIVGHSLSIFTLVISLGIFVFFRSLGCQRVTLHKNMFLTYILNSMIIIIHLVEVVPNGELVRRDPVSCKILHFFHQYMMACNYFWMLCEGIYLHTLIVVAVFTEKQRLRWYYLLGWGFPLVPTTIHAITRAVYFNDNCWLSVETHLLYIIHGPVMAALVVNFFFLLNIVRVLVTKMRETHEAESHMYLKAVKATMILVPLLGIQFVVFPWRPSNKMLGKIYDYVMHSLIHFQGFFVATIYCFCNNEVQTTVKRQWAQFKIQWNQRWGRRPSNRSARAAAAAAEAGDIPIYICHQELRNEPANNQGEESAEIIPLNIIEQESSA
T4 sequence (looked up) 2: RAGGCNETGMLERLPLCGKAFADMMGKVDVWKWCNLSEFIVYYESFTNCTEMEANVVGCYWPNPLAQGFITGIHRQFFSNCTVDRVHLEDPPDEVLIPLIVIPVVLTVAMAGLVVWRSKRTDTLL

T5: human amylin 3(a) receptor (human calcitonin receptor co-expressed with RAMP-3) (human, UniProt P30988 25-474; O60896 24-148)
T5 sequence (looked up) 1: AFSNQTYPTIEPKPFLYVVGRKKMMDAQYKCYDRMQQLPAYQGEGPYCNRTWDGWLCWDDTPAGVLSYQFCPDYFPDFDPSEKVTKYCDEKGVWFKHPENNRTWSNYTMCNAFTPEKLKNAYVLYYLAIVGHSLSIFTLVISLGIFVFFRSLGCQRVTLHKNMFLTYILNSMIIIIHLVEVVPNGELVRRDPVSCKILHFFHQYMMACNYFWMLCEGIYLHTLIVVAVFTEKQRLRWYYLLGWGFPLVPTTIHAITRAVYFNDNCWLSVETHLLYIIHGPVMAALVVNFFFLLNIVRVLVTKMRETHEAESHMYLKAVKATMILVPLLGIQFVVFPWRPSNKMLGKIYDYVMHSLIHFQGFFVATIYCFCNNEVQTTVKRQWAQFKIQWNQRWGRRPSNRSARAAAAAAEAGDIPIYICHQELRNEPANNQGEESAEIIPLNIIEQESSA
T5 sequence (looked up) 2: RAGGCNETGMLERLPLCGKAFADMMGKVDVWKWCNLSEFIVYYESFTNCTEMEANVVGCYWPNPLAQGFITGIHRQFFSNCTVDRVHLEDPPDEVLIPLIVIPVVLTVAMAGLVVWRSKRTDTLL

T6: human amylin receptor (human, UniProt P30988 25-474; O60896 24-148, limits assumed)
T6 sequence (looked up) 1: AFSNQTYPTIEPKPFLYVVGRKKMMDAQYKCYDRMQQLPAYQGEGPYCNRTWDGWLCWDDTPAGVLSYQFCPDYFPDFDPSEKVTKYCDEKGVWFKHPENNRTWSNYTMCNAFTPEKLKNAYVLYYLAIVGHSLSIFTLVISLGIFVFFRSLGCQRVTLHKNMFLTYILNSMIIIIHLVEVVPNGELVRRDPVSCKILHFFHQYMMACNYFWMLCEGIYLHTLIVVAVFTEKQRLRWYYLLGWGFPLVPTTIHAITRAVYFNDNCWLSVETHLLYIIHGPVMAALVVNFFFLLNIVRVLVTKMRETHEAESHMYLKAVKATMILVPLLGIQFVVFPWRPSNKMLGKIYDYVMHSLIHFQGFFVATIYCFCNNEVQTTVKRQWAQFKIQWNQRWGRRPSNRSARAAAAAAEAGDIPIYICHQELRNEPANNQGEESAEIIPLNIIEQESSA
T6 sequence (looked up) 2: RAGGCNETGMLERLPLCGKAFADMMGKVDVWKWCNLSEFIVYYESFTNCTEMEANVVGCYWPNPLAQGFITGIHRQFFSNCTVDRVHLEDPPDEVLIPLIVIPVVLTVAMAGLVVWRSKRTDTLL

T7: Amylin receptor human (human, UniProt P30988 25-474; O60896 24-148, limits assumed)
T7 sequence (looked up) 1: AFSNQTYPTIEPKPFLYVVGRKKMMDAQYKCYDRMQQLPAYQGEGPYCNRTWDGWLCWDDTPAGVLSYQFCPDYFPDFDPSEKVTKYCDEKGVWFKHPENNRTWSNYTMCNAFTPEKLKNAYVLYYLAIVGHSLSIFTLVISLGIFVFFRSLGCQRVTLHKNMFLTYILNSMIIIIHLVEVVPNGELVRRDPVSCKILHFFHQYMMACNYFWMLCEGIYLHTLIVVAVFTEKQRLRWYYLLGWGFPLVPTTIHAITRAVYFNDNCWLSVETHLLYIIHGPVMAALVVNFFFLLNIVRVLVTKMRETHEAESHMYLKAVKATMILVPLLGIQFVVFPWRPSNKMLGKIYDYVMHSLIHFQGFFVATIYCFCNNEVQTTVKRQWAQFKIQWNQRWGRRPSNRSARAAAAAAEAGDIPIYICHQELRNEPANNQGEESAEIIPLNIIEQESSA
T7 sequence (looked up) 2: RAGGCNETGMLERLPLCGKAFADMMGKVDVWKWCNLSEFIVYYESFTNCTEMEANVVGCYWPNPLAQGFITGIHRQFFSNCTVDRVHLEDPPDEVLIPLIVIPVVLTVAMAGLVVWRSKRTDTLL


What was measured:
Assay in all cases: cell-based or functional assay
[1] = biological target: T1, human amylin 3(a) receptor (human calcitonin receptor with RAMP-3) (human)
[2] = biological target: T2, human calcitonin (a) receptor (human)
[3] = biological target: T3, human amylin 3(a) receptor (human calcitonin receptor + RAMP-3) (human)
[4] = biological target: T4, human amylin 3(a) receptor (human calcitonin receptor co-expressed with RAMP-3) (human)
[5] = biological target: T5, human amylin 3(a) receptor (human …)
human amylin receptor = biological target: T6, human amylin receptor
[6] = biological target: T4, human amylin 3(a) receptor (human calcitonin receptor co-expressed with RAMP-3) (human); remark: listed apart in the source
Amylin receptor human = biological target: T7, Amylin receptor human

Binder	Amylin receptor human EC50 (pM) [1] [pM]	CTa receptor human EC50 [2] [nM]	CTa receptor human EC50 (pM) [2] [pM]	Amylin receptor human EC50 [3] [nM]	Amylin receptor human EC50 (pM) [4] [pM]	Amylin receptor human EC50 (pM) [5] [pM]	Amylin receptor human EC50 (pM) (human amylin receptor)	Amylin receptor human EC50 (pM) [6] [pM]	Amylin receptor human EC50 (pM) (Amylin receptor human)
{C18 diacid-γGlu-AEEA-AEEA}-[dR][dR][Orn]CNTATCATQRLAEFLHRSSNNFGPILPPTNVGSNTY-NH2 (disulfide 4-9 (inferred))	–	–	–	–	–	29.5	–	–	–
{C20 diacid}-EERECNTATCATQRLANFLVHSSNNFGPILPPTNVGSNTP-NH2 (disulfide 5-10; SMILES CC[C@H](C)[C@H](NC(=O)[C@@H]1CCCN1C(=O)CNC(=O)[C@H](Cc1ccccc1)NC(=O)[C@H](CC(N)=O)NC(=O)[C@H](CC(N)=O)NC(=O)[C@H](CO)NC(=O)[C@H](CO)NC(=O)[C@H](Cc1c[nH]cn1)NC(=O)[C@@H](NC(=O)[C@H](CC(C)C)NC(=O)[C@H](Cc1ccccc1)NC(=O)[C@H](CC(N)=O)NC(=O)[C@H](C)NC(=O)[C@H](CC(C)C)NC(=O)[C@H](CCCNC(=N)N)NC(=O)[C@H](CCC(N)=O)NC(=O)[C@@H](NC(=O)[C@H](C)NC(=O)[C@@H]1CSSC[C@H](NC(=O)[C@H](CCC(=O)O)NC(=O)[C@H](CCCNC(=N)N)NC(=O)[C@H](CCC(=O)O)NC(=O)[C@H](CCC(=O)O)NC(=O)CCCCCCCCCCCCCCCCCCC(=O)O)C(=O)N[C@@H](CC(N)=O)C(=O)N[C@@H]([C@@H](C)O)C(=O)N[C@@H](C)C(=O)N[C@@H]([C@@H](C)O)C(=O)N1)[C@@H](C)O)C(C)C)C(=O)N[C@@H](CC(C)C)C(=O)N1CCC[C@H]1C(=O)N1CCC[C@H]1C(=O)N[C@H](C(=O)N[C@@H](CC(N)=O)C(=O)N[C@H](C(=O)NCC(=O)N[C@@H](CO)C(=O)N[C@@H](CC(N)=O)C(=O)N[C@H](C(=O)N1CCC[C@H]1C(N)=O)[C@@H](C)O)C(C)C)[C@@H](C)O) [N-alpha-(19-carboxynonadecanoyl)-Glu-Glu-Arg-[Glu1,Pro37]-pramlintide]	–	0.0615	–	0.045	–	–	–	–	–

Results, then the binder that gave them:

Amylin receptor human EC50 (pM) [1] [pM]	CTa receptor human EC50 [2] [nM]	CTa receptor human EC50 (pM) [2] [pM]	Amylin receptor human EC50 [3] [nM]	Amylin receptor human EC50 (pM) [4] [pM]	Amylin receptor human EC50 (pM) [5] [pM]	Amylin receptor human EC50 (pM) (human amylin receptor)	Amylin receptor human EC50 (pM) [6] [pM]	Amylin receptor human EC50 (pM) (Amylin receptor human)	Binder
253	0.432	432	0.253	253	–	–	–	–	{C20 diacid-γGlu}-SSGSSGCNTATCATQRLAEFLHHSSNNFGPILPPTNVGSNTY-NH2 (disulfide 7-12 (inferred))
288	0.443	443	0.288	288	–	288	288	288	{C20 diacid}-EERECNTATCATQRLAEFLHHSSNNFGPILPPTNVGSNTP-NH2 (disulfide 5-10 (inferred)) [N-alpha-(19-carboxynonadecanoyl)-Glu-Glu-Arg-[Glu1,Glu14,His17,Pro37]-pramlintide]
